In publication PMC3517901, “The TSC1-TSC2 complex consists of multiple TSC1 and TSC2 subunits” (BMC Biochemistry, 2012):

B1: TSC1-TEV-myc, released from anti-myc beads by AcTEV (natural protein, UniProt Q92574 1-1164, looked up)
chain: MAQQANVGELLAMLDSPMLGVRDDVTAVFKENLNSDRGPMLVNTLVDYYLETSSQPALHILTTLQEPHDKHLLDRINEYVGKAATRLSILSLLGHVIRLQPSWKHKLSQAPLLPSLLKCLKMDTDVVVLTTGVLVLITMLPMIPQSGKQHLLDFFDIFGRLSSWCLKKPGHVAEVYLVHLHASVYALFHRLYGMYPCNFVSFLRSHYSMKENLETFEEVVKPMMEHVRIHPELVTGSKDHELDPRRWKRLETHDVVIECAKISLDPTEASYEDGYSVSHQISARFPHRSADVTTSPYADTQNSYGCATSTPYSTSRLMLLNMPGQLPQTLSSPSTRLITEPPQATLWSPSMVCGMTTPPTSPGNVPPDLSHPYSKVFGTTAGGKGTPLGTPATSPPPAPLCHSDDYVHISLPQATVTPPRKEERMDSARPCLHRQHHLLNDRGSEEPPGSKGSVTLSDLPGFLGDLASEEDSIEKDKEEAAISRELSEITTAEAEPVVPRGGFDSPFYRDSLPGSQRKTHSAASSSQGASVNPEPLHSSLDKLGPDTPKQAFTPIDLPCGSADESPAGDRECQTSLETSIFTPSPCKIPPPTRVGFGSGQPPPYDHLFEVALPKTAHHFVIRKTEELLKKAKGNTEEDGVPSTSPMEVLDRLIQQGADAHSKELNKLPLPSKSVDWTHFGGSPPSDEIRTLRDQLLLLHNQLLYERFKRQQHALRNRRLLRKVIKAAALEEHNAAMKDQLKLQEKDIQMWKVSLQKEQARYNQLQEQRDTMVTKLHSQIRQLQHDREEFYNQSQELQTKLEDCRNMIAELRIELKKANNKVCHTELLLSQVSQKLSNSESVQQQMEFLNRQLLVLGEVNELYLEQLQNKHSDTTKEVEMMKAAYRKELEKNRSHVLQQTQRLDTSQKRILELESHLAKKDHLLLEQKKYLEDVKLQARGQLQAAESRYEAQKRITQVFELEILDLYGRLEKDGLLKKLEEEKAEAAEAAEERLDCCNDGCSDSMVGHNEEASGHNGETKTPRPSSARGSSGSRGGGGSSSSSSELSTPEKPPHQRAGPFSSRWETTMGEASASIPTTVGSLPSSKSFLGMKARELFRNKSESQCDEDGMTSSLSESLKTELGKDLGVEAKIPLNLDGPHPSPPTPDSVGQLHIMDYNETHHEHS
notes: TSC1 with an AcTEV recognition site (ENLYFQG) introduced by site directed mutagenesis before the myc tag; after cleavage part of the site (ENLYFQ) would remain on TSC1; The position of the site is in Additional file 1
B2: TSC2, untagged, full-length (transfected) (natural protein)
chain: not shown
notes: TSC2; also called untagged TSC2; source: HEK 293T, transfected, in lysate; also co-purified with TSC1-TEV-myc on anti-myc beads and released by AcTEV

How the values were obtained:
[1] = target: B2; experiment: SEC; TSC1-TSC2 complex from cotransfected HEK 293T cells, purified on anti-myc affinity beads, released by AcTEV overnight at 4°C, Coomassie gel and Superose 6 gel filtration, fractions immunoblotted; details: both partners purified
[2] = target: the molecule itself; experiment: as above

| Binder | binding result [1] | binding result [2] |
| --- | --- | --- |
| B1 | binds | – |
| B2 | – | binds |
